Test results as given in the DeepSol protein solubility set.

Test: soluble on expression in E. coli; label from the status in PepcDB or PDB records

Sequence	soluble on expression in E. coli
MQQYIGIDVGGTHVKYGVINSDGEELTHHQFDTPEDASTFTRKWQDVVARCQQDYDIAAIGVSFPGHINPHNGHAAKAGALAYLDDVNLMELFSGLTDLPLVVENDANCAALGEMWRGAGQHYENMVCITIGTGIGGGIIVGRELYRGAHFHAGEFGVMPVGNNGESMHKIASTSGLMASCRQALALPAEEMPPADVIFERMATDVHLREAVNDWARYLSRGVYSVISMFDPGVVLIGGGISEQEKLYPLLTRHLETFEMWEALQVPIQPCQLGNQAGRLGAVWLAQQKLDRG	not soluble
MAYDGLFTKKMVESLQFLTTGRVHKINQPDNDTILMVVRQNRQNHQLLLSIHPNFSRLQLTTKKYDNPFNPPMFARVFRKHLEGGIIESIKQIGNDRRIEIDIKSKDEIGDTIYRTVILEIMGKHSNLILVDENRKIIEGFKHLTPNTNHYRTVMPGFNYEAPPTQHKINPYDITGAEVLKYIDFNAGNIAKQLLNQFEGFSPLITNEIVSRRQFMTSSTLPEAFDEVMAETKLPPTPIFHKNHETGKEDFYFIKLNQFNDDTVTYDSLNDLLDRFYDARGERERVKQ	soluble
MGSDKIHHHHHHMGSKKLTVGSDSHRLSKSSFSSNKSSHSATKDQPIDTDDIDEDDESGHNIILNIISQLRPGCDLTRITLPTFILEKKSMLERVTNQLQFPEFLLQAHSEKDPLKRFLYVMKWYLAGWHIAPKAVKKPLNPVLGEYFTAYWDLPNKQQAYYISEQTSHHPPECAYFYMIPESSIRVDGVVIPKSRFLGNSSAAMMDGSTVLQFLDIKDGNGKPEKYVLTQPNVYVRGILFGKMRIELGDHMIIKSPNFQADIEFKTKGYVFGTYDAIEGTVKDYDGNAYYEISGKWNDVMYLKDLKQPRSSPKVFLDTHKESPLRPKVRPLSEQGEYESRKLWKKVTDALAVRNHPVATEEKFQIEDHQRQLAKKRIEDGVEFHPKLFRRSKPGEDLDYCIYKNIPVDEDPEKQIRSILQIAPILPGQQFTDKFFIPAFEKIKSQKKMIENEKQNPAKQ	not soluble
MAHHHHHHMLNRSRLRRVWLGGTAANTSLGRDVMPSTGKYINIVSPTDVAANISAGAMPPEANVAAALPVPRIQYSKWNRALRSDVYDELLKLPLRYKLHDFAKLCPPQRCQEEPEAVGVVGRDSAVGYLPPLGPADPLDTIPFFVHRSSNGVLPGKVFSMHPRNLMPAFYLRIQQVEGDMFRFEEELLKIFPTKKIFVRSHSIYVYNVALDGRMVLHHWLLGLGF	not soluble
MGSDKIHHHHHHMKCILYKKALPLILLSCLLLGACGNSKNDSVSKEPLSHTSTEKGTWDSAPKVLTPTADGTQTYTCDVASIDASNSGSGYIIVNYHGSNQKVKLQITGPDSVTYTFDLHGGNEVFPLVASSGSYTVTVFENVEGTQYATVLSQVISVSITDEFGPYLYPNQYVNFTADSPAVKEGSSLAYYCSSDTEVVESVYNYIISNFKYDYDKAKNVKSGYLPDVDKVFTENTGICFDYAAVMATMLRTQAIPTRLEVGYAGEEYHAWISTYIKDKGWINGIIEFDGTSWNMLDPTFASTSDSPKKFIAQKSDYITKYVY	not soluble
MGSDKIHHHHHHMSTSAIDPVSFSLYAKDFTRFAQELGASFERYGFAVLSDYDLDQARIDAAVDSAKAFFALPVETKKQYAGVKGGARGYIPFGVETAKGADHYDLKEFWHMGRDLPPGHRFRAHMADNVWPAEIPAFKHDVSWLYNSLDGMGGKVLEAIATYLKLERDFFKPTVQDGNSVLRLLHYPPIPKDATGVRAGAHGDINTITLLLGAEEGGLEVLDRDGQWLPINPPPGCLVINIGDMLERLTNNVLPSTVHRVVNPPPERRGVPRYSTPFFLHFASDYEIKTLQNCVTAENPDRYPESITADEFLQQRLREIKLA	not soluble
MGSDKIHHHHHHMNFVTTIGLEVHVELKTNSKIFSPSPVQFGSEPNANTNVIDWGYPGVLPTPNKGVVEAGIKAATALHAEIEHHTYFDRKNYFYPDNPKAYQITQHEKPIAHDGWIEIEVDGKKKKIGIEEMHIEEDAGKNTHENDYSYVDLNRQGTPLIEIVSKPDIASPEEAYAYCEALRQRIQFTGVSDVKMEEGSMRVDVNISIRPAGSDKYGVKTEMKNLNSFNYVRKSLEYEEQRQQQVLMAGGKIQQETRRFDETTGQTILMRVKEGSDDYRYFPEPDIPAVDIDDDWIASVKKTIPEMPGSRRERYINEFGLTAYDAGVLTQTKEMSDFFDATVAEGADPKLASNYLQGDVNAYLNEHKVDLLATDLTPTNLAGMIKMISDETISSKIAKKVFKAIMAGSEPVQWVNDKGLVQLSDPAKLQPIVDDVLDNNQQSIDDFKNGKDRAVGFLVGQIMKKTRGQANPKVVNQLLMTSLKAR	not soluble
MGSDKIHHHHHHMNKTCERTSGDCTGESKARAASDRVTPCFTPGTLIATPRGERLVENLQVGDRVITRDNGIQEIRWFGHNAMGPQDLSHASHLQPILIRQGALGNGLPERDMMVSPNHRVLVANDKTALYFEDREVLVAAKHLTGLTGIDAIVTTAVTYIHFMFNQHEVVLSDGAWTESFQPVDQSLRGLDNAQRNEIFELFPELRTKEGQKAYPSARRELKEREARMLLH	not soluble
MSLREAMSKQAMLDAIEAEREVLIGFLQEFVRAASPNPPGDTRAAAAVIQGFLSARGVPNELLGPQESMPNVVSECEGGRAGPRLVYNGHMDVFPVGDGHGWTRDPWSGDIEEGRLHGRGTCDMKTGTAASVIAYAYLYARRAQLAGSVALTAVSDEETGGRWGTRWLLENDTRWRGDCVLNGEPSSLDTIRFSEKGTLRLKFEVLAAGAHGAYVHRSESPTRIAAALIGRLAEVEAIEPSLPAALKAHLQREDVRRALDVAMGEGAADVVTRTTLNVGVLNGGLKINMIPDRCVFEVDIRLPVGTEPDVVLARLEGILAEFPQASMEVQQWHSTPPNVCAHDHPMVDFIADNAQAIVGRRPVAVPSIGSTDCRYWRRSGVPAYVYGPAPGRMAMSNESVDLDEFIAVAKVHAAAGWDYLNGAAEGHHHHHH	soluble
MARPETEPKTELAKRFREVRRILGFTERKQFAEHLGVTAGSIGTYETGVSEPTASALSKYQEICGVSLDWLVTGNGEMFTDMAKAKAAGFKPQAIPAGLMKRLGHLAYTTYHDAKITLPPEDVAELAAGLYGKLQELIHNINDMEEVEATLPLLKLHLKRQIEVEKAHRAIPGNTANSSD	not soluble
MSQDPFALLKAEVDLLGRLLGEAIRTLSGERFFALVEEVRALAKARRQGDEAAGEALLARVEGLSTEEAEALVRAFTHYFHLVNLAEERHRVRVNRLRAQAETLESPRPEGFLALAKALKERGLSLEEAEAHLNRLELLLTFTAHPTETRRRTLRHHLEALQRELEAGDRERLAARVALLYGTEEVRKARPTVEDEIKGGLYYLPTTLWEAVPRVVAGLEAALERVYGRRPRLKSPVRFRSWIGGDRDGNPFVTPEVTAFAGRYAREVARRRFLEALEDLVRDLSLAEARVPVPREVRERGEGVERFMGEPYRRYFAALYRALEREEATTEGLLAALKAAERGLREVGLGRVAEAFLDPLEARLSAFGLELAPLDLREESGRLLEAAAELLRVGGVHPDFLALPQEERERLLTEELKTARPLLPVGEAPEGEALRVALGALKAWRDKGAHVVSMTHHPEDLLAVFLLAREVGLYRPGRPLPFDVVPLFETLEDLRRAPGVLRRLLENPVFLAHARGRGGVEVMIGYSDSNKDAGFLMANLALYEAQEALSRVGEEVGLPVYFFHGRGTSTARGGGPAGRAIASLPPRSVGRRIRLTEQGEALADRYSHPDLAVRHLEQMLYHFALAALGPGQEPEARWREALAQAAEESTRRYRALLQEEGFFDFFEAFTPIREIGELPIASRPVYRRGRVRDIRDLRAIPWVMAWTQVRVLLPGWYGLSALEELPLDLLREMYRGWPFFASTLEAAAMALAKADMGVARLYLRLVPEPLRFFYRRLAEEHARTVALLEAVFQAPLLHNQRTLERQIRLRNPYVDPINIVQVELLRRYRAPGGKEDEALRRALLLSILGVAAGLRNAG	soluble
MGSDKIHHHHHHMASPINESRIGYLYEAVRSGTVRAAADYLDVAPSAVSRQIALLEEELAIALVERNKRGVRPTEAGALLIEYFRQQRSHQGDLVAKLQEIRGLRRGTIVVVMGEGFASTMVGGPIKQFCEAYPEISITMDLCSTNEVMRRVSEDEADIGLVFNPSSDSKIVSRAGSRQPMHAIVSPAFPLVGKVKSVTLQDLMPYPMALTHPEHGTRRLVDAAMLLDKVRLTPAITTNSVNVLKLFAKSNLGFTLLAPIAIAPELAAGELVALPVDNRLLESSEAHLVTRAGRQLSPAANRLLNRLKAQIHKYDEYGAESGGQASLATQ	not soluble
